Each block holds one binder with its values, some of them ahead of it. Starred links: 1 amine or outer side, 2 acyl side, 3 side chain; linkers in the order of their positions; H or OH if unused. Non-standard residues stand in square brackets, D forms with d. Groups on a side chain read outwards from the residue. No end group written: not given here. *: point of attachment. C20 diacid = O=C(O)CCCCCCCCCCCCCCCCCCC(=O)*; C18 diacid = O=C(O)CCCCCCCCCCCCCCCCC(=O)*; γGlu = O=C(O)[C@H](CCC(=O)[*:2])N[*:1]; αMeF = C[C@](N)(Cc1ccccc1)C(=O)O; AEEA = NCCOCCOCC(=O)O; Aib = CC(C)(N)C(=O)O
What was measured:
[1] = biological target: human GLP-1 receptor (hGLP-1R) (human, UniProt P43220 24-463); assay: cell-based or functional assay
[2] = biological target: human glucagon receptor (hGCGR) (human, UniProt P47871 26-477); assay: cell-based or functional assay
human glucagon receptor (hGCGR), sequence (P47871 26-477): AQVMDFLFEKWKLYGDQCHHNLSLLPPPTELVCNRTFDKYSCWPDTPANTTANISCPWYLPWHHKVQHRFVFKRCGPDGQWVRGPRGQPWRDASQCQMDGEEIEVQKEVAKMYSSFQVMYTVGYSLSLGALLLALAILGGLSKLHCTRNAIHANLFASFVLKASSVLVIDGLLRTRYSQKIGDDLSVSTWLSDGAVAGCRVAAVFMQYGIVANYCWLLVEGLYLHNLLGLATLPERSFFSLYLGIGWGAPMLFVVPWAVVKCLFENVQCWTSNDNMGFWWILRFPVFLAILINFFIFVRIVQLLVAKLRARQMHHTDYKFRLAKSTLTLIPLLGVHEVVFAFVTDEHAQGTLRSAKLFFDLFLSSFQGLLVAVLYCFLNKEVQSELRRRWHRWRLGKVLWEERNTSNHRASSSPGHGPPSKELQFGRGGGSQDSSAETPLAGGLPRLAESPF

B1: Peptide 447 (peptide)
peptide: H[Aib]QGTFTSDVSK[αMeF]LDRK([AEEA-AEEA-γGlu-γGlu-C20 diacid])RAQDFVRWLV[Aib]E-NH2
modifications: N-terminus assumed
SMILES: CC(C)C[C@H](NC(=O)[C@H](Cc1c[nH]c2ccccc12)NC(=O)[C@H](CCCNC(=N)N)NC(=O)[C@@H](NC(=O)[C@H](Cc1ccccc1)NC(=O)[C@H](CC(=O)O)NC(=O)[C@H](CCC(N)=O)NC(=O)[C@H](C)NC(=O)[C@H](CCCNC(=N)N)NC(=O)[C@H](CCCCNC(=O)COCCOCCNC(=O)COCCOCCNC(=O)CC[C@H](NC(=O)CC[C@H](NC(=O)CCCCCCCCCCCCCCCCCCC(=O)O)C(=O)O)C(=O)O)NC(=O)[C@H](CCCNC(=N)N)NC(=O)[C@H](CC(=O)O)NC(=O)[C@H](CC(C)C)NC(=O)[C@](C)(Cc1ccccc1)NC(=O)[C@H](CCCCN)NC(=O)[C@H](CO)NC(=O)[C@@H](NC(=O)[C@H](CC(=O)O)NC(=O)[C@H](CO)NC(=O)[C@@H](NC(=O)[C@H](Cc1ccccc1)NC(=O)[C@@H](NC(=O)CNC(=O)[C@H](CCC(N)=O)NC(=O)C(C)(C)NC(=O)[C@@H](N)Cc1c[nH]cn1)[C@@H](C)O)[C@@H](C)O)C(C)C)C(C)C)C(=O)N[C@H](C(=O)NC(C)(C)C(=O)N[C@@H](CCC(=O)O)C(N)=O)C(C)C
hGLP-1R EC50 (pM) [1]: 170 pM
hGluc-R EC50 (pM) [2]: 667 pM

B2: Peptide 448 (peptide)
peptide: H[Aib]QGTFTSDVSK[αMeF]LDKK([AEEA-AEEA-γGlu-γGlu-C18 diacid])RARDFVRWLL[Aib]E-OH
modifications: N-terminus assumed
SMILES: CC(C)C[C@H](NC(=O)[C@H](Cc1c[nH]c2ccccc12)NC(=O)[C@H](CCCNC(=N)N)NC(=O)[C@@H](NC(=O)[C@H](Cc1ccccc1)NC(=O)[C@H](CC(=O)O)NC(=O)[C@H](CCCNC(=N)N)NC(=O)[C@H](C)NC(=O)[C@H](CCCNC(=N)N)NC(=O)[C@H](CCCCNC(=O)COCCOCCNC(=O)COCCOCCNC(=O)CC[C@H](NC(=O)CC[C@H](NC(=O)CCCCCCCCCCCCCCCCC(=O)O)C(=O)O)C(=O)O)NC(=O)[C@H](CCCCN)NC(=O)[C@H](CC(=O)O)NC(=O)[C@H](CC(C)C)NC(=O)[C@](C)(Cc1ccccc1)NC(=O)[C@H](CCCCN)NC(=O)[C@H](CO)NC(=O)[C@@H](NC(=O)[C@H](CC(=O)O)NC(=O)[C@H](CO)NC(=O)[C@@H](NC(=O)[C@H](Cc1ccccc1)NC(=O)[C@@H](NC(=O)CNC(=O)[C@H](CCC(N)=O)NC(=O)C(C)(C)NC(=O)[C@@H](N)Cc1c[nH]cn1)[C@@H](C)O)[C@@H](C)O)C(C)C)C(C)C)C(=O)N[C@@H](CC(C)C)C(=O)NC(C)(C)C(=O)N[C@@H](CCC(=O)O)C(=O)O
hGLP-1R EC50 (pM) [1]: 53.1 pM
hGluc-R EC50 (pM) [2]: 29 pM

B3: Peptide 442 (peptide)
peptide: H[Aib]QGTFTSDVSK[αMeF]LDKK([AEEA-AEEA-γGlu-C18 diacid])RAQDFVRWLLE[Aib]G-NH2
modifications: N-terminus assumed
SMILES: CC(C)C[C@H](NC(=O)[C@H](Cc1c[nH]c2ccccc12)NC(=O)[C@H](CCCNC(=N)N)NC(=O)[C@@H](NC(=O)[C@H](Cc1ccccc1)NC(=O)[C@H](CC(=O)O)NC(=O)[C@H](CCC(N)=O)NC(=O)[C@H](C)NC(=O)[C@H](CCCNC(=N)N)NC(=O)[C@H](CCCCNC(=O)COCCOCCNC(=O)COCCOCCNC(=O)CC[C@H](NC(=O)CCCCCCCCCCCCCCCCC(=O)O)C(=O)O)NC(=O)[C@H](CCCCN)NC(=O)[C@H](CC(=O)O)NC(=O)[C@H](CC(C)C)NC(=O)[C@](C)(Cc1ccccc1)NC(=O)[C@H](CCCCN)NC(=O)[C@H](CO)NC(=O)[C@@H](NC(=O)[C@H](CC(=O)O)NC(=O)[C@H](CO)NC(=O)[C@@H](NC(=O)[C@H](Cc1ccccc1)NC(=O)[C@@H](NC(=O)CNC(=O)[C@H](CCC(N)=O)NC(=O)C(C)(C)NC(=O)[C@@H](N)Cc1c[nH]cn1)[C@@H](C)O)[C@@H](C)O)C(C)C)C(C)C)C(=O)N[C@@H](CC(C)C)C(=O)N[C@@H](CCC(=O)O)C(=O)NC(C)(C)C(=O)NCC(N)=O
hGLP-1R EC50 (pM) [1]: 19.1 pM
hGluc-R EC50 (pM) [2]: 35.8 pM

B5: Peptide 450 (peptide)
peptide: H[Aib]QGTFTSDVSK[αMeF]LDKK([AEEA-AEEA-γGlu-γGlu-C18 diacid])RAQDFVRWLLE[Aib]G-OH
modifications: N-terminus assumed
SMILES: CC(C)C[C@H](NC(=O)[C@H](Cc1c[nH]c2ccccc12)NC(=O)[C@H](CCCNC(=N)N)NC(=O)[C@@H](NC(=O)[C@H](Cc1ccccc1)NC(=O)[C@H](CC(=O)O)NC(=O)[C@H](CCC(N)=O)NC(=O)[C@H](C)NC(=O)[C@H](CCCNC(=N)N)NC(=O)[C@H](CCCCNC(=O)COCCOCCNC(=O)COCCOCCNC(=O)CC[C@H](NC(=O)CC[C@H](NC(=O)CCCCCCCCCCCCCCCCC(=O)O)C(=O)O)C(=O)O)NC(=O)[C@H](CCCCN)NC(=O)[C@H](CC(=O)O)NC(=O)[C@H](CC(C)C)NC(=O)[C@](C)(Cc1ccccc1)NC(=O)[C@H](CCCCN)NC(=O)[C@H](CO)NC(=O)[C@@H](NC(=O)[C@H](CC(=O)O)NC(=O)[C@H](CO)NC(=O)[C@@H](NC(=O)[C@H](Cc1ccccc1)NC(=O)[C@@H](NC(=O)CNC(=O)[C@H](CCC(N)=O)NC(=O)C(C)(C)NC(=O)[C@@H](N)Cc1c[nH]cn1)[C@@H](C)O)[C@@H](C)O)C(C)C)C(C)C)C(=O)N[C@@H](CC(C)C)C(=O)N[C@@H](CCC(=O)O)C(=O)NC(C)(C)C(=O)NCC(=O)O
hGLP-1R EC50 (pM) [1]: 57.3 pM
hGluc-R EC50 (pM) [2]: 57.8 pM

B6: Peptide 446 (peptide)
peptide: H[Aib]QGTFTSDVSK[αMeF]LDRK([AEEA-AEEA-γGlu-γGlu-C18 diacid])RAQDFVRWLV[Aib]E-NH2
modifications: N-terminus assumed
SMILES: CC(C)C[C@H](NC(=O)[C@H](Cc1c[nH]c2ccccc12)NC(=O)[C@H](CCCNC(=N)N)NC(=O)[C@@H](NC(=O)[C@H](Cc1ccccc1)NC(=O)[C@H](CC(=O)O)NC(=O)[C@H](CCC(N)=O)NC(=O)[C@H](C)NC(=O)[C@H](CCCNC(=N)N)NC(=O)[C@H](CCCCNC(=O)COCCOCCNC(=O)COCCOCCNC(=O)CC[C@H](NC(=O)CC[C@H](NC(=O)CCCCCCCCCCCCCCCCC(=O)O)C(=O)O)C(=O)O)NC(=O)[C@H](CCCNC(=N)N)NC(=O)[C@H](CC(=O)O)NC(=O)[C@H](CC(C)C)NC(=O)[C@](C)(Cc1ccccc1)NC(=O)[C@H](CCCCN)NC(=O)[C@H](CO)NC(=O)[C@@H](NC(=O)[C@H](CC(=O)O)NC(=O)[C@H](CO)NC(=O)[C@@H](NC(=O)[C@H](Cc1ccccc1)NC(=O)[C@@H](NC(=O)CNC(=O)[C@H](CCC(N)=O)NC(=O)C(C)(C)NC(=O)[C@@H](N)Cc1c[nH]cn1)[C@@H](C)O)[C@@H](C)O)C(C)C)C(C)C)C(=O)N[C@H](C(=O)NC(C)(C)C(=O)N[C@@H](CCC(=O)O)C(N)=O)C(C)C
hGLP-1R EC50 (pM) [1]: 32.9 pM
hGluc-R EC50 (pM) [2]: 366 pM

Now from value to binder:

hGLP-1R EC50 (pM) [1]: 207 pM
hGluc-R EC50 (pM) [2]: 242 pM
B4: Peptide 449 (peptide)
peptide: H[Aib]QGTFTSDVSK[αMeF]LDTK([AEEA-AEEA-γGlu-γGlu-C20 diacid])RARDFVQWLLE[Aib]G-OH
modifications: N-terminus assumed
SMILES: CC(C)C[C@H](NC(=O)[C@H](Cc1c[nH]c2ccccc12)NC(=O)[C@H](CCC(N)=O)NC(=O)[C@@H](NC(=O)[C@H](Cc1ccccc1)NC(=O)[C@H](CC(=O)O)NC(=O)[C@H](CCCNC(=N)N)NC(=O)[C@H](C)NC(=O)[C@H](CCCNC(=N)N)NC(=O)[C@H](CCCCNC(=O)COCCOCCNC(=O)COCCOCCNC(=O)CC[C@H](NC(=O)CC[C@H](NC(=O)CCCCCCCCCCCCCCCCCCC(=O)O)C(=O)O)C(=O)O)NC(=O)[C@@H](NC(=O)[C@H](CC(=O)O)NC(=O)[C@H](CC(C)C)NC(=O)[C@](C)(Cc1ccccc1)NC(=O)[C@H](CCCCN)NC(=O)[C@H](CO)NC(=O)[C@@H](NC(=O)[C@H](CC(=O)O)NC(=O)[C@H](CO)NC(=O)[C@@H](NC(=O)[C@H](Cc1ccccc1)NC(=O)[C@@H](NC(=O)CNC(=O)[C@H](CCC(N)=O)NC(=O)C(C)(C)NC(=O)[C@@H](N)Cc1c[nH]cn1)[C@@H](C)O)[C@@H](C)O)C(C)C)[C@@H](C)O)C(C)C)C(=O)N[C@@H](CC(C)C)C(=O)N[C@@H](CCC(=O)O)C(=O)NC(C)(C)C(=O)NCC(=O)O

hGLP-1R EC50 (pM) [1]: 247 pM
hGluc-R EC50 (pM) [2]: 1760 pM
Binder: H[Aib]QGTFTSDVSK[αMeF]LETKRARDFVQWLLE[Aib]G-OH (not fully specified (residue 17)) [Peptide 444]

hGLP-1R EC50 (pM) [1]: 33 pM
hGluc-R EC50 (pM) [2]: 684 pM
Binder: H[Aib]QGTFTSDVSK[αMeF]LETK([AEEA-AEEA-γGlu-C18 diacid])RARDFVQWLLE[Aib]G-OH [Peptide 445]

hGLP-1R EC50 (pM) [1]: 20.6 pM
hGluc-R EC50 (pM) [2]: 22.4 pM
B7: Peptide 443 (peptide)
peptide: H[Aib]QGTFTSDVSK[αMeF]LDKK([AEEA-AEEA-γGlu-C18 diacid])RARDFVRWLL[Aib]E-NH2
modifications: N-terminus assumed
SMILES: CC(C)C[C@H](NC(=O)[C@H](Cc1c[nH]c2ccccc12)NC(=O)[C@H](CCCNC(=N)N)NC(=O)[C@@H](NC(=O)[C@H](Cc1ccccc1)NC(=O)[C@H](CC(=O)O)NC(=O)[C@H](CCCNC(=N)N)NC(=O)[C@H](C)NC(=O)[C@H](CCCNC(=N)N)NC(=O)[C@H](CCCCNC(=O)COCCOCCNC(=O)COCCOCCNC(=O)CC[C@H](NC(=O)CCCCCCCCCCCCCCCCC(=O)O)C(=O)O)NC(=O)[C@H](CCCCN)NC(=O)[C@H](CC(=O)O)NC(=O)[C@H](CC(C)C)NC(=O)[C@](C)(Cc1ccccc1)NC(=O)[C@H](CCCCN)NC(=O)[C@H](CO)NC(=O)[C@@H](NC(=O)[C@H](CC(=O)O)NC(=O)[C@H](CO)NC(=O)[C@@H](NC(=O)[C@H](Cc1ccccc1)NC(=O)[C@@H](NC(=O)CNC(=O)[C@H](CCC(N)=O)NC(=O)C(C)(C)NC(=O)[C@@H](N)Cc1c[nH]cn1)[C@@H](C)O)[C@@H](C)O)C(C)C)C(C)C)C(=O)N[C@@H](CC(C)C)C(=O)NC(C)(C)C(=O)N[C@@H](CCC(=O)O)C(N)=O

Reference: patent US20230357348A1 (AstraZeneca / MedImmune, published 2023)
